{"source": "patent US20040242847A1", "molecular_target": "human TPO receptor (MPL) (human) (UniProt P40238)", "test": "cell-based or functional assay"}
{"substance": "human TPO (R&D Systems) (from UniProt P40225 22-353) (ligand)", "values": [{"measurement": "proliferation of BaF/mpl cells (WST-8), ED50", "value": 0.027, "unit": "nM"}]}
